# Measured values reported in paper PMC4263744, “Single Arginine Mutation in Two Yeast Isocitrate Dehydrogenases: Biochemical Characterization and Functional Implication” (PLoS ONE, 2014).
# Changes are numbered by the printed parent chain. Names and notes keep the numbering of the source.
# B1: ScIDH1 (Saccharomyces cerevisiae S288C) (protein)
# chain: FSKIKVKQPVVELDGDEMTRIIWDKIKKKLILPYLDVDLKYYDLSVESRDATSDKITQDAAEAIKKYGVGIKCATITPDEARVKEFNLHKMWKSPNGTIRNILGGTVFREPIVIPRIPRLVPRWEKPIIIGRHAHGDQYKATDTLIPGPGSLELVYKPSDPTTAQPQTLKVYDYKGSGVAMAMYNTDESIEGFAHSSFKLAIDKKLNLFLSTKNTILKKYDGRFKDIFQEVYEAQYKSKFEQLGIHYEHRLIDDMVAQMIKSKGGFIMALKNYDGDVQSDIVAQGFGSLGLMTSILVTPDGKTFESEAAHGTVTRHYRKYQKGEETSTNSIASIFAWSRGLLKRGELDNTPALCKFANILESATLNTVQQDGIMTKDLALACGNNERSAYVTTEEFLDAVEKRLQKEIKSIE
# notes: 6xHis-tagged, pET-28b(+), E. coli Rosetta (DE3); transit peptide absent (forward primer encodes M-FSKIKVK); 419 residues per subunit
# B2: ScIDH1 (Saccharomyces cerevisiae S288C; R148A) (protein)
# chain: B1 chain with R132A
# notes: as for B1
# B3: ScIDH1 (Saccharomyces cerevisiae S288C; R148H) (protein)
# chain: B1 chain with R132H
# notes: as for B1
# B4: YlIDH (Yarrowia lipolytica CLIB122) (protein)
# chain: MSTTATRGLSTKIKVKNPIVELDGDEMTRIIWKSIKDKLILPYLDIDLKYYDLGIEYRDQTNDQVTIDAAEAIKKYQVGVKCATITPDEARVKEFGLKKMWLSPNGTIRNILGGTVFREPIVIPAVPRLVPGWKEPIIIGRHAHGDQYKAQDAVIPGAGELTLNFKPANGGDEQVIKVYTYDAPGVAMAMYNTDESITGFAYSSFNLALQKKLPLYMSTKNTILKKYDGRFKDIFQEIYDKEYKDKFDAAGIWYEHRLIDDMVAQMIKSKGGFIMALKNYDGDVQSDIVAQGFGSLGLMTSVLVTPDGKTFESEAAHGTVTRHYRQHQQGKETSTNSIASIFAWTRGLIQRGILDETPEVTKFAEALEKATVDTVDKDGIMTKDLALAGGKTDRSSYVLTEEFIDAVANRLKKDLA
# notes: 6xHis-tagged, pET-28b(+), E. coli Rosetta (DE3); forward primer encodes MSTTATR; 422 residues per subunit
# B5: YlIDH (Yarrowia lipolytica CLIB122; R141H) (protein)
# chain: B4 chain with R141H
# notes: as for B4
# What was measured:
# [1] = molecular target: T1, HcIDH (Homo sapiens, UniProt O75874, R132H); assay: NADPH consumption at […] nm; type: biochemical; settings: 2 mM MgCl2, 50 mM Tris-HCl pH 8.0, neomorphic reduction to 2-HG, read-out: α-KG / K m
# T1 construct: gene IDH1; synthetic gene, 6xHis-tagged, pET-28b(+), E. coli Rosetta (DE3); 420 residues per subunit
# [2] = molecular target: T1, HcIDH; assay: NADPH formation at […] nm, linear regression; type: biochemical; settings: 0.5 mM NADP+, 2 mM MgCl2, 50 mM Tris-HCl pH 8.0, 25°C; apparent; as D-isocitrate; read-out: Isocitrate ^a / K m
# [3] = molecular target: T2, HcIDH (Homo sapiens, UniProt O75874); assay: NADPH formation at […] nm, nonlinear regression; type: biochemical; settings: 0.5 mM NADP+, 2 mM MgCl2, 50 mM Tris-HCl pH 8.0, 25°C; apparent; as D-isocitrate; read-out: Isocitrate ^a / K m
# T2 construct: gene IDH1; synthetic gene, 6xHis-tagged, pET-28b(+), E. coli Rosetta (DE3); 420 residues per subunit
# [4] = substrate: O=C(O)C[C@H](C(=O)O)[C@@H](O)C(=O)O; assay: purified protein; type: biochemical, Saccharomyces cerevisiae; settings: 0.5 mM NADP+, 2 mM MgCl2, 50 mM Tris-HCl pH 8.0, 25°C, apparent, as D-isocitrate
# [5] = substrate: NC(=O)c1ccc[n+]([C@@H]2O[C@H](COP(=O)(O)OP(=O)(O)OC[C@H]3O[C@@H](n4cnc5c(N)ncnc54)[C@H](OP(=O)(O)O)[C@@H]3O)[C@@H](O)[C@H]2O)c1; assay: purified protein; type: biochemical, Saccharomyces cerevisiae; settings: isocitrate, MgCl2, 50 mM Tris-HCl pH 8.0, 25°C, varied: cofactor
# [6] = substrate: NC(=O)C1=CN([C@@H]2O[C@H](COP(=O)(O)OP(=O)(O)OC[C@H]3O[C@@H](n4cnc5c(N)ncnc54)[C@H](OP(=O)(O)O)[C@@H]3O)[C@@H](O)[C@H]2O)C=CC1; assay: purified protein; type: biochemical, Saccharomyces cerevisiae; settings: α-KG, 2 mM MgCl2, 50 mM Tris-HCl pH 8.0, neomorphic reduction, varied: cofactor
# [7] = substrate: O=C(O)CCC(=O)C(=O)O; assay: purified protein; type: biochemical, Saccharomyces cerevisiae; settings: NADPH, 2 mM MgCl2, 50 mM Tris-HCl pH 8.0, neomorphic reduction to 2-HG
# [8] = substrate: O=C(O)C[C@H](C(=O)O)[C@@H](O)C(=O)O; assay: purified protein; type: biochemical, Yarrowia lipolytica; settings: 0.5 mM NADP+, 2 mM MgCl2, 50 mM Tris-HCl pH 8.0, 25°C, apparent, as D-isocitrate
# [9] = substrate: NC(=O)c1ccc[n+]([C@@H]2O[C@H](COP(=O)(O)OP(=O)(O)OC[C@H]3O[C@@H](n4cnc5c(N)ncnc54)[C@H](OP(=O)(O)O)[C@@H]3O)[C@@H](O)[C@H]2O)c1; assay: purified protein; type: biochemical, Yarrowia lipolytica; settings: isocitrate, MgCl2, 50 mM Tris-HCl pH 8.0, 25°C, varied: cofactor
# [10] = substrate: NC(=O)C1=CN([C@@H]2O[C@H](COP(=O)(O)OP(=O)(O)OC[C@H]3O[C@@H](n4cnc5c(N)ncnc54)[C@H](OP(=O)(O)O)[C@@H]3O)[C@@H](O)[C@H]2O)C=CC1; assay: purified protein; type: biochemical, Yarrowia lipolytica; settings: α-KG, 2 mM MgCl2, 50 mM Tris-HCl pH 8.0, neomorphic reduction, varied: cofactor
# [11] = substrate: O=C(O)CCC(=O)C(=O)O; assay: purified protein; type: biochemical, Yarrowia lipolytica; settings: NADPH, 2 mM MgCl2, 50 mM Tris-HCl pH 8.0, neomorphic reduction to 2-HG
# T1 sequence (O75874 whole entry R132H): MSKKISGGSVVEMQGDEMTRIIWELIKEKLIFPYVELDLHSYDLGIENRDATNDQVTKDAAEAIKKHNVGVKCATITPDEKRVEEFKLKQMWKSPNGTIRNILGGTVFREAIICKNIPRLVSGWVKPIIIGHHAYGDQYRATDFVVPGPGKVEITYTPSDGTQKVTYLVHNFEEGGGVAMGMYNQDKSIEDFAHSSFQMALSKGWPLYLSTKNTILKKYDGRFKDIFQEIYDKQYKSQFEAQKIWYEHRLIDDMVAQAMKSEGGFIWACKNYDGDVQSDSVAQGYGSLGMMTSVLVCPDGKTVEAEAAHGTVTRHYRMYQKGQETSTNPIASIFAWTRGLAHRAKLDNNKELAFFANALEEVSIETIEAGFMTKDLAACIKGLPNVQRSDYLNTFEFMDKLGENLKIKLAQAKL
# T2 sequence (O75874 whole entry): as the sequence (O75874 whole entry R132H) above, with H132R counted along it
molecule,measurement,setting,value
O=C(O)CCC(=O)C(=O)O [α-KG],Km,[1],157 ± 38.4 µM
O=C(O)C[C@H](C(=O)O)[C@@H](O)C(=O)O [isocitrate],Km,[2],2280 ± 195 µM
same,Km,[3],5.7 ± 1.4 µM
B1,Km,[4],10.5 ± 1.2 µM
same,kcat,[4],26.3 ± 0.09 s⁻¹
same,kcat/Km,[4],2.5e+06 M⁻¹ s⁻¹
same,Km,[5],17.4 ± 2.01 µM
B2,Km,[4],2263.1 ± 177.3 µM
same,kcat,[4],12.4 ± 5.31 s⁻¹
same,kcat/Km,[4],5000 M⁻¹ s⁻¹
B3,Km,[6],5.9 ± 0.51 µM
same,Km,[4],24.8 ± 3.2 µM
same,kcat,[4],0.27 ± 0.015 s⁻¹
same,kcat/Km,[4],11000 M⁻¹ s⁻¹
same,Km,[7],30.0 ± 1.76 µM
same,kcat,[7],0.34 ± 0.009 s⁻¹
same,kcat/Km,[7],11000 M⁻¹ s⁻¹
B4,Km,[8],11.7 ± 1.1 µM
same,kcat,[8],26.6 ± 0.87 s⁻¹
same,kcat/Km,[8],2.3e+06 M⁻¹ s⁻¹
same,Km,[9],4.1 ± 0.76 µM
B5,Km,[10],3.2 ± 0.43 µM
same,Km,[8],25.6 ± 2.3 µM
same,kcat,[8],0.14 ± 0.006 s⁻¹
same,kcat/Km,[8],5000 M⁻¹ s⁻¹
same,Km,[11],47.3 ± 4.2 µM
same,kcat,[11],0.43 ± 0.017 s⁻¹
same,kcat/Km,[11],9000 M⁻¹ s⁻¹
